Measured values as given in the RNAGym collection of RNA variant scans (doi:10.1101/gr.219683.116).

B1: mRNA-splicing (parent)
chain: AGUUGCUGCUGGGAGCUCCAGCACAGUGAAAUGGACAGAAGGGCAGAGCAA

Variants of: B1
Assay: exon inclusion enrichment index; higher = more inclusion; WT1 exon 5 minigene, HEK293

Variant	exon inclusion enrichment index
AGUUCACACAGGGAGCUCCAGCACAGAGAAAUGGACAGAAGGGCAGAGCAA [G5C C6A U7C G8A U10A U27A]	0.151
AGUUCACACAGGGAGCUCCAGCACAGUGAAAUGGACAGAAGGGCAUGGCAA [G5C C6A U7C G8A U10A G46U A47G]	0.118
AGUUCACACAGGGAGCUCCAGCACAGUGAAAUGGACAGAAGGGCAUCGCAA [G5C C6A U7C G8A U10A G46U A47C]	0.501
AGUUCACACAGGGAGCUCCAGCACAGUGAAAUGGACAGAAGGGCAUUGCAA [G5C C6A U7C G8A U10A G46U A47U]	0.206
AGUUCACACAGGGAGCUCCAGCACAGACAAAUGGACAGAAGGGCAGAGCAA [G5C C6A U7C G8A U10A U27A G28C]	0.152
AGUUCACACAGGGAGCUCCAGCACAGAAAAAUGGACAGAAGGGCAGAGCAA [G5C C6A U7C G8A U10A U27A G28A]	0.112
AGUUCACACAGGGAGCUCCAGCACAGAUAAAUGGACAGAAGGGCAGAGCAA [G5C C6A U7C G8A U10A U27A G28U]	0.0378
AGUUCACACAGGGAGCUCCAGCACAGUGAAAUGGACACGAGGGCAGAGCAA [G5C C6A U7C G8A U10A G38C A39G]	0.111
AGUUCACACAGGGAGCUCCAGCACAGUGAAAUGGACACUAGGGCAGAGCAA [G5C C6A U7C G8A U10A G38C A39U]	0.00505
AGUUCACACAGGGAGCCACAGCACAGUGAAAUGGACAGAAGGGCAGAGCAA [G5C C6A U7C G8A U10A U17C C18A]	0.063
AGUUCACACAGGGAGCCUCAGCACAGUGAAAUGGACAGAAGGGCAGAGCAA [G5C C6A U7C G8A U10A U17C C18U]	0.0619
AGUUCACACAGGGAGCCGCAGCACAGUGAAAUGGACAGAAGGGCAGAGCAA [G5C C6A U7C G8A U10A U17C C18G]	0.166
AGUUCACACAGGGAGCUCCAGCACAGUGAAAUGGACAUUAGGGCAGAGCAA [G5C C6A U7C G8A U10A G38U A39U]	0.00131
AGUUCACACAGGGAGCUCCAGCACAGUGAAAUGGACAUCAGGGCAGAGCAA [G5C C6A U7C G8A U10A G38U A39C]	0.0552
AGUUCACACAGGGAGCUCCAGCACAGUGAAAUGGACAUGAGGGCAGAGCAA [G5C C6A U7C G8A U10A G38U A39G]	0.0343
AGUUCACACAGGGAGCUCCAGCACAGUGAAAUGGACAUAAGGGCAGAGCAA [G5C C6A U7C G8A U10A G38U]	0.0342
AGUUCACACAGGGAGCUCCAGCACAGUGAAAUGGACAGAAGAUCAGAGCAA [G5C C6A U7C G8A U10A G42A G43U]	1.25
AGUUCACACAGGGAGCUCCAGCACAGUGAAAUGGACAGAAGAACAGAGCAA [G5C C6A U7C G8A U10A G42A G43A]	1.43
AGUUCACACAGGGAGCUCCAGCACAGUGAAAUGGACAGAAGACCAGAGCAA [G5C C6A U7C G8A U10A G42A G43C]	1.53
AGUUCACACAGGGAGCUCCAGCACAGUGAAAUGGACAGAAGGGCACGGCAA [G5C C6A U7C G8A U10A G46C A47G]	0.199
AGUUCACACAGGGAGCUCCAGCACAGUGAAAUGGACAGAAGGGCACUGCAA [G5C C6A U7C G8A U10A G46C A47U]	0.141
AGUUCACACAGGGAGCUCCAGCACAGUGAAAUGGACAGAAGGGCACCGCAA [G5C C6A U7C G8A U10A G46C A47C]	0.209
AGUUCACACAGGGAGCUCCAGCACAGUGAAAUGGACAGAAAGGCAGAGCAA [G5C C6A U7C G8A U10A G41A]	0.0572
AGUUCACACAGGGAGCUCCAGCACAGUGAAAUGGACAGAAUGGCAGAGCAA [G5C C6A U7C G8A U10A G41U]	0.102
AGUUCACACAGGGAGCUCCAGCACAGUGAAAUGGACAGAACGGCAGAGCAA [G5C C6A U7C G8A U10A G41C]	0.467
AGUUCACACAGGGAGCUCCAGCACAGUGAAAUGGACAGAAGGCAAGAGCAA [G5C C6A U7C G8A U10A G43C C44A]	0.602

Variant	exon inclusion enrichment index
AGUUCACACAGGGAGCUCCAGCACAGUGAAAUGGACAGAAGGCUAGAGCAA [G5C C6A U7C G8A U10A G43C C44U]	0.0879
AGUUCACACAGGGAGCUCCAGCACAGUGAAAUGGACAGAAGGCGAGAGCAA [G5C C6A U7C G8A U10A G43C C44G]	1.22
AGUUCACACAGGGAGCUCCAGCACAGUGAAAUGGACAGAAUCGCAGAGCAA [G5C C6A U7C G8A U10A G41U G42C]	0.369
AGUUCACACAGGGAGCUCCAGCACAGUGAAAUGGACAGAAUUGCAGAGCAA [G5C C6A U7C G8A U10A G41U G42U]	0.0854
AGUUCACACAGGGAGCUCCAGCACAGUGAAAUGGACAGAAUAGCAGAGCAA [G5C C6A U7C G8A U10A G41U G42A]	0.0336
AGUUCACACAGGGAGCUCCAGCACAGUGAAAUGGACAGAAGGACAGAGCAA [G5C C6A U7C G8A U10A G43A]	0.595
AGUUCACACAGGGAGCUCCAGCACAGUGAAAUGGACAGAAGGUCAGAGCAA [G5C C6A U7C G8A U10A G43U]	0.0948
AGUUCACACAGGGAGCUCCAGCACAGUGAAAUGGACAGAAGGCCAGAGCAA [G5C C6A U7C G8A U10A G43C]	0.238
AGUUCACACCGGGAGCUCCAGCACAGUGAAAUGGACAGAAGGGCAGAGCAA [G5C C6A U7C G8A U10C]	1.71
AGUUCACACGGGGAGCUCCAGCACAGUGAAAUGGACAGAAGGGCAGAGCAA [G5C C6A U7C G8A U10G]	0.737
AGUUCACACAGGGAGCUCCAGCACAGUGAAAGUGACAGAAGGGCAGAGCAA [G5C C6A U7C G8A U10A U32G G33U]	0.009
AGUUCACACAGGGAGCUCCAGCACAGUGAAAGAGACAGAAGGGCAGAGCAA [G5C C6A U7C G8A U10A U32G G33A]	0.00787
AGUUCACACAGGGAGCUCCAGCACAGUGAAAGCGACAGAAGGGCAGAGCAA [G5C C6A U7C G8A U10A U32G G33C]	0.0862
AGUUCACACAGGGAGCUCCAGCACAGUGAAAUGGACAGAAGUUCAGAGCAA [G5C C6A U7C G8A U10A G42U G43U]	0.305
AGUUCACACAGGGAGCUCCAGCACAGUGAAAUGGACAGAAGUACAGAGCAA [G5C C6A U7C G8A U10A G42U G43A]	0.386
AGUUCACACAGGGAGCUCCAGCACAGUGAAAUGGACAGAAGUCCAGAGCAA [G5C C6A U7C G8A U10A G42U G43C]	0.0644
AGUUCACACAGGGAGCAACAGCACAGUGAAAUGGACAGAAGGGCAGAGCAA [G5C C6A U7C G8A U10A U17A C18A]	0.043
AGUUCACACAGGGAGCAUCAGCACAGUGAAAUGGACAGAAGGGCAGAGCAA [G5C C6A U7C G8A U10A U17A C18U]	0.0447
AGUUCACACAGGGAGCAGCAGCACAGUGAAAUGGACAGAAGGGCAGAGCAA [G5C C6A U7C G8A U10A U17A C18G]	0.0895
AGUUCACACAGGGAGCUCCAGCACAGUGAAAUGGACAGAAGGGCACAGCAA [G5C C6A U7C G8A U10A G46C]	0.0718
AGUUCACACAGGGAGCUCCAGCACAGUGAAAUGGACAGAAGGGCAUAGCAA [G5C C6A U7C G8A U10A G46U]	0.0644
AGUUCACACAGGGAGCUCCAGCACAGUGAAAUGGACAGAAGGGCAAAGCAA [G5C C6A U7C G8A U10A G46A]	0.143
AGUUCACACAGGGAGCUCCAGCACAGUGAAAAAGACAGAAGGGCAGAGCAA [G5C C6A U7C G8A U10A U32A G33A]	0.0122
AGUUCACACAGGGAGCUCCAGCACAGUGAAAAUGACAGAAGGGCAGAGCAA [G5C C6A U7C G8A U10A U32A G33U]	0.0392
AGUUCACACAGGGAGCUCCAGCACAGUGAAAACGACAGAAGGGCAGAGCAA [G5C C6A U7C G8A U10A U32A G33C]	0.174
